Experimental data: the DeepSol protein solubility set

Experiment: soluble on expression in E. coli; label from the status in PepcDB or PDB records

Sequence | soluble on expression in E. coli
MTSNDSSENLRNRLAEKMAGDITLSEKPGESLKKWRLNFEISQTDIANYLKVSPSVISDYESGRRKSPGTLIVRKIVESLLEIDLERGGKKIHTYETMLNAESGSKSIYSTYEYTLPIQLAKLVNLIEGDIVYKGIEKPLYGFSVVDSQRAILELSSHEFQKLYGWSTDRAMIFTKVSTGKSPLVAIRVTNLKPGAVVLHGLRKEEVESVAVKMAEVDRVPLVATTMDLDQIVQLLKKYSQYYARE | not soluble
MDTSKIVGEKIKALREDKSISIEELAQRSGLAIEQIERIENNIDIPSLAPLIKIARVLGVRLGTFLDDQDEIGPVVCRKKEAKDAISFSNNAIHSRKHMEYHSLSKSKADRHMEPFIIDVMPTEDSDFVLSSHEGEEFIMVMEGVMEISYGKNTYLLEEGDSIYYDSIVPHHVHAYEGQAAKILAVVYTPI | not soluble
MQAGARLARQDNAMADAPAPAPKRARAGRPPTLAAPRERILEEAARLFARSGYENSSVADLAAAIGVSKAALYHYFPTKQDIYDAIILETLAGLLQAVTREVERQREACERLRAFMVGHARYFARHHEQFVTMLIGYSGMALPERADAAQLRDRYEQLLRDLLEQGMATGTLRRLDVAATGRAVLSMLNWMVRWYKPGQGDSAEQIADGYYDLLFNGLRI | soluble
MGSDKIHHHHHHMHVEDYMNETPACLLAMLTQTREDLWQAAKALTERGVTRIILTGSGTSYHGALTARSFMQQWCGLPVDVYWPFLLDDSALTLSDKALVIGISQGGGSLSTLAAMERARAAGHLTASMAGEAPAVIDRAADLVLTVPCGEERAGAKTKGYHCTILNLMLLGLAVASRQRRLSDEERKALLIRMDTTFNHLPTLIEASQAWVLNHARPLIDSADIRLTGPARLFGTVQEGALKMLETLRCPVAGYEFEEFIHGIYNAFDERSTLIMLDPFPDERQDRLAEILGGWTQHIYRIGPQVENNGKNMPFAFINDPDFAVFEYIIPLQMVCARLPPVKGIDPAIPKDPQFHQKMKSKQLN | not soluble
MNAHEIDYRLYGDDMQFVEIELDPYESVVAEAGGMMMMDDGIVMETVFGDGSSSGKGLLGRLVGAGKRLLTGESLFMTVFTNQGSGKRRVAFAAPYPGKIIPVDLSELGGKLICQKDSFLCAAKGVSVGIEFQRKLGAGFFGGEGFIMQKLEGDGLAFLHAGGTIHRRDLQPGETLRIDTGCLVAMTKDVNYDIEYVGSIKTAFFGGEGLFLATVTGPGAVWVQSLPFSRLADRVLAAAPSAGGRSVGEGSILGGIGDWLDGDD | not soluble
MGSDKIHHHHHHMMNKREQDYWIFSVELRESKVSEENGKSIVITPLGLSAKRILIAGTVSSKQSDDRMARISLADPIGSFYVTAFSGGFNPEEKAMVDSLEVDDKAMVMGKINPYRTSEGVYLFSIRPELVSKTGEDALRLWTLKAYYFAKRRIYAIREAQKLQDPKADELISLGYSRVEAEAAISSIKNFPGYDYQRILEAIETAIYSVSTPTQLPEVRSKILNYIKENDTDGKGCKYEDIVIAAKNMGIDQSTTDEILNTLGSSGEIFEISLKRYKAVEPE | not soluble
MKKLLFFILILFGVLSVQSLANGCSAQICTCPGGGYVTTGQYCPVYNNNTPSQPVLTKWYAFSYDKNKNIYGVGTGYDKKTAQNEALKNCGTSECKIEKSQKIPGGISLAAVSSNGVMVTYSSFGSSTWEQYEKRIDNLIKKCKAKGGSNCKLVFDSAYLYRKDKNLGY | not soluble
DQRRRFIEAVLSGVTAAVIGVGRDRRITIFNPSSEGMLKKAAPELIGANLSDVAPEIEAVLVEAESRYRNDYRKQINIMRGGTERTMNVQVTREEGDESHGSYVITVDDIT | not soluble
MSEQFEMIAKTFQGLEEILAEELTTLGANDIQIGRRMVSFTGDKRMMYKANFCLRTAIRILKPIKNFTAKDADEVYNQIQAIPWEEYLDVNKTFAIDAVVFSEEFRHSKFVSYKVKDAIVDYFRKKTGKRPSVRINNPDVLLNIHIAQTTCTLSLDSSGESLHRRGYRQEQVDAPLNEVLAAGMLLMTGWRGECDLIDPMCGSGTIPIEAALIARNIAPGVFRKGFAFEKWVDFDSEMFDEIYNDDSQEREFTHKIYGYDNNPKANEIATHNIKAAGVSKDVTLKLQPFQQFEQPQEKSIIVMNPPYGERISTNDLLGLYQMIGERLKHAFVGNEAWVLSYREECFDQIGLKPSKKVPLFNGALECEFRKYEIFDGKYKEFKSQEGEGEEKKETEGNYDTSRPRERKEFKPRGEGEFKPRREGEFKPRREGEFKPRKEGDFKPRREEGSFTRDDRDRKPRGEFRGERDSRAPREFRGNREPRIPKKEEE | not soluble
MESKEERALNNLIVENVNQENDEKDEKEQVANKGEPLALPLNVSEYCVPRGNRRRFRVRQPILQYRWDIMHRLGEPQARMREENMERIGEEVRQLMEKLREKQLSHSLRAVSTDPPHHDHHDEFCLMP | soluble
MTRRPDRKDVATVDELHASATKLVGLDDFGTDDDNYREALGVLLDAYQGEAGLTVLGSKMNRFFLRGALVARLLSQSAWKQYPEHVDVAIKRPIFVTGLVRTGTTALHRLLGADPAHQGLHMWLAEYPQPRPPRETWESNPLYRQLDADFTQHHAENPGYTGLHFMAAYELEECWQLLRQSLHSVSYEALAHVPSYADWLSRQDWTPSYCRHRRNLQLIGLNDAEKRWVLKNPSHLFALDALMATYPDALVVQTHRPVETIMASMCSLAQHTTEGWSTKFVGAQIGADAMDTWSRGLERFNAARAKYDSAQFYDVDYHDLIADPLGTVADIYRHFGLTLSDEARQAMTTVHAESQSGARAPKHSYSLADYGLTVEMVKERFAGL | soluble
MLDINLFREEKGNNPEIIRESQRRRFASVEIVDEIIKLDKEWRQRQFEVDSFRKEFNKLNKQVAQLKIKKEDASEIIQQTEKNKQDSTAKEAEVREAYAALKAKLEQVGNLVHDSVPVDKDEANNLVIKLWGEKRFSTPGLKLKNHVDLVELLGIADTKRGAEIAGARGFFLKGDGLMLNQALINFGLTFLKKRGFTGLQPPFFMRKDVMAKCAQLAQFDEELYKVTGEGDDKYLIATAEQPLCAYHIDEWIHPTELPLRYAGYSSCFRKEAGSHGRDTLGIFRVHQFEKIEQFCITGPNENASWEMLDEMMKNSEDFYQALKLPYQIVSIVSGALNDAAAKKYDLEAWFPSSETFRELVSCSNCTDYQARRLEIRYGQKKSNEQTKQYVHMLNSTLTATERTICCILENYQREDGVDIPEVLQPFMGGETFLPFKAKPVVADTKGKKSKA | soluble
MTLPFKNGRGTMKINGVTIQMLPAASGDCIYLEFPDSDFRMLIDGGYAKTYQKYLKKFLLKLAAEGKRLNLIVVTHIDDDHISGIRALLKENGDSRNPKIIEIDEIWFNSLNQCITSRNAEQGMSFAVKIILKSMCSTDIDFECEYKKQNISYTNGKNLAELIQAGGYRWNASVVNNLVSKGQIVQFGDLKITILNPGIETLTKMGKKWLYHLKQINSNNIEITRDPLFDAAFEGFLLNNEKNIEFKQENISYSSEDLDWLDKYAEYKDIEMDSKITNCSSIAILIDYKDIKMLFPGDSPIQLFENELPKILDVIKLPHHGSAKNISLEFIKNTKVKYYLLSTDGKRYIDHPGKAVIANIIKNTGNNTELIKNYEIKFLKGLGKLDAED | not soluble
MGSDKIHHHHHHAVNCYVGNYYRADSIAEAAIDSDREVAVTIEKKDKRIQATQYDLKLKNYTITFAPQDKEKATKALIFYPGGRVQYTAYAPLMHELAKNNFVCILVHMPGNLAVLDQNAADGIIEKYKEIYPSIQEWYMGGHSLGGAMAAEYVAKHVDEFDGLYLFAAYSTADLSDSDLRVFSVYGSEDGVLDMDKYRKYRSNLPEDTYEYVIDGGCHSYFGSYGLQKGDGTPDVAFEEQIEMTVDFITYNSK | not soluble
MTDIGAPVTVQVAVDPPYPVVIGTGLLDELEDLLADRHKVAVVHQPGLAETAEEIRKRLAGKGVDAHRIEIPDAEAGKDLPVVGFIWEVLGRIGIGRKDALVSLGGGAATDVAGFAAATWLRGVSIVHLPTTLLGMVDAAVGGKTGINTDAGKNLVGAFHQPLAVLVDLATLQTLPRDEMICGMAEVVKAGFIADPVILDLIEADPQAALDPAGDVLPELIRRAITVKAEVVAADEKESELREILNYGHTLGHAIERRERYRWRHGAAVSVGLVFAAELARLAGRLDDATAQRHRTILSSLGLPVSYDPDALPQLLEIMAGDKKTRAGVLRFVVLDGLAKPGRMVGPDPGLLVTAYAGVCAP | not soluble
GQAQTQVKIISQKSDEINEAITRKIDRGSTLLHTETGYLHSRQNMILTVISNRELSKLNQLVMEIDPTAFMIIGKVNEVHGNGFTLPKKHAVKTEK | not soluble
ARSEKRVPMTRLRKRVAERLLEAKNSTAMLTTFNEVNMKPIMDLRKQYGEAFEKRHGIRLGFMSFYVKAVVEALKRYPEVNASIDGDDVVYHNYFDVSMAVSTPRGLVTPVLRDVDTLGMADIEKKIKELAVKGRDGKLTVEDLTGGNFTITNGGVFGSLMSTPIINPPQSAILGMHAIKDRPMAVNGQVEILPMMYLALSYDHRLIDGRESVGFLVTIKELLEDPTRLLLDV | soluble
MGSDKIHHHHHHMRVFIIHLSPKTCQNFSLKETHITPLLESLKLQGISYEIFDAIYSKISPTQLHPLILEHLHPSFMVEDLWAFCKNKKHPPCALKNFFYAIKHCGKRMGFGELGCYASHYSLWQKCIELNEAICILEDDIIIKDRFKESLEFCRHHINELGYIRLMHLEENVAKQKTPVKGVSQILNFKDGIGTQGYVLAPKAAQKLLKYSAKEWVMPIDCVMDRHYWHGVKNYVLEEFAIACDGMNAQNSNTEKQRPKKLPLSIRIGRSLHKSTIKFLDKVFRYSPKLIRIGKH | not soluble
GPGSMMVGKAPKNCVHIGLCVLYSGSGFRGLQIQVHAPTCHTVEGVLIQALKDAGIIADVVRGRPAGEHHHFARSCRTDRGVHAIRNMVSLFVPKEVFEKMGQAEGICEKLNRQLPATVRVANVMQLSGSFIPRHCCNRRVYRYMLPLYALLPPCDTWAAVDKYYPGCLAHVQALAEEAAAAQRTQYSIPYVDLEKMNAVARPADAQALPSSWLRDLKASADRCNQVLRSHFTGSRRYHNFSVDIDSNRSGVSAKVIQPTTDEALRAIYRSEVCPRLFFFPCSTKGGAADEAPVPVHGESRTEYDMNLLRYPPRTPTSPEDTVGGSAAASTTTTPTGTSTTPATCLSPNTTALPFLFFQIEGCSFLLNMIRKIIGSVLAVCRGARESILEDAFSPECRVTTPLAPGPYLYLAQSTYHGYDRSIGGAGNAHQPGRLKTVQDAWGGAVSEAAELFAFHKIAADIVDVDLNAMPPLDDILAARDRAREASRPHTAVEDAHLAEMKEYKPVLPTRIPWPASSDMTVFLRLLRVHNWNVRPIQLDPACKALREIKNRKERLTASSVAAAASPGAEASKAGEADGGDTRANEATVEQAATPTGDAWRIRSEGSSTGGVPEGGEDGWLYVADTPEEASVQRQAYFASLWKRARPWEYDDATGKSLIHGGEVGTEDDFDDGDGSTARPRRHRRV | soluble
MLIRYRKNYEKIAMGLLSFMPTEKDLKRLQQTMKQYETNNDWQLFLWKEGDDIVGIIGVLLRAPDVVEIQHISVNPSHRHQGIGKQMVKALKEVYPGRRLCANEWTASFFDKCHACNE | not soluble
MTAPSLDNWEKRKRFVELPRKRQMAFIDTGGPGPVLLMLHGFSDTSRSFSIIEPYFQEYRLIAPDLPGHGASSVGHGFHVADFAETIDRFLTLMGVSRFFVLGHSMGAMTAIELAARRSSSVRGLALISGTLEPDFGTESKLARDILALRDPIKPAGGFLHDWYSCSRPVNEEFLFRMKRDAANMAATTWHGVLKAFAETDLHYSASKINVPVLCLAGSEDPLFDDSHRQQLFEAFPLAQTVTMPGHGHNPHWENPQGVSTLVTEFFAEVMTDASPVRVETAADKR | not soluble
